The values that follow come from patent US20110300138A1 (published 2011).

Experiment [1] deals with TSHR with Arg109 mutated to Ala, expressed in CHO cells (human) (UniProt P16473). In words: cell-based or functional assay.
The target in experiment [2] is wild type TSHR (human TSH receptor) expressed in CHO cells (human) (UniProt P16473). Kind of experiment: cell-based or functional assay.
In experiment [3] the target is TSH receptor (TSHR), full length human, coated on tubes (human) (UniProt P16473). Kind of experiment: inhibition of 125I-K1-18 IgG binding to TSHR coated tubes; competitor 125I-K1-18 IgG; sample at 10 µg/mL in assay buffer.
Experiment [4] addresses TSHR (full length) coated on tubes (human) (UniProt P16473). Kind of experiment: inhibition of 125I-K1-18 Fab (competitor) binding to TSHR coated tubes; test sample 0.1 µg/mL in HBD serum.
In experiment [5] the target is thyroid stimulating hormone receptor (TSHR), full length human TSHR (human) (UniProt P16473). In words: TSH-biotin competition ELISA, TSHR coated wells; 1 µg/mL in assay buffer.
Experiment [6] concerns the target TSH receptor (TSHR), full length human, coated on tubes (human) (UniProt P16473). In words: inhibition of 125I-K1-18 IgG binding to TSHR coated tubes; competitor 125I-K1-18 IgG; sample at 100 µg/mL in HBD serum.
In experiment [7] the target is TSHR (thyroid stimulating hormone receptor), full length human (human) (UniProt P16473). In words: competitor ^125I-K1-70 IgG, TSHR coated tubes; 0.01 µg/mL in assay buffer.
Experiment [8] addresses TSHR (full length) coated on tubes (human) (UniProt P16473). Kind of experiment: inhibition of 125I-K1-18 Fab (competitor) binding to TSHR coated tubes; test sample 100 µg/mL in HBD serum.
Experiment [9] addresses TSH receptor (full length human TSHR) (human) (UniProt P16473). Kind of experiment: competition ELISA: inhibition of M22 Fab-peroxidase (competitor) binding to TSHR coated wells; test sample at 10 µg/mL diluted in HBD serum pool. (ELISA stands for enzyme-linked immunosorbent assay.)
Experiment [10] concerns the target TSH receptor (full length human TSHR) coated on tubes (human) (UniProt P16473). In words: 125I-TSH binding inhibition, TSHR coated tubes; 10 ng/mL, in assay buffer.
For experiment [11] the target is unchanged. Kind of experiment: 125I-TSH binding inhibition read against NIBSC 90/672; mean over 10, 30 and 100 ng/mL, in assay buffer.
For experiment [12], the target named is human TSH receptor (full length) coated on ELISA plate wells (human) (UniProt P16473). In words: TSH-biotin binding inhibition ELISA, TSHR coated wells; 1 µg/mL in assay buffer + 100 µg/mL 5B3 IgG; negative control MAb.
Experiment [13] addresses TSH receptor (TSHR), full length human, coated on tubes (human) (UniProt P16473). In words: inhibition of 125I-K1-18 IgG binding to TSHR coated tubes; competitor 125I-K1-18 IgG; negative control sample at 10 µg/mL in assay buffer.
Experiment [14] addresses TSHR (full length) coated on tubes (human) (UniProt P16473). Kind of experiment: inhibition of 125I-K1-18 Fab (competitor) binding to TSHR coated tubes; negative control 0.01 µg/mL in assay buffer.
For experiment [15], the target named is human TSH receptor (full length) coated on ELISA plate wells (human) (UniProt P16473). Kind of experiment: TSH-biotin binding inhibition ELISA, TSHR coated wells; 100 µg/mL in assay buffer + 100 µg/mL 5B3 IgG; negative control MAb.
The target is the same in experiment [16]. In words: TSH-biotin binding inhibition ELISA, TSHR coated wells; 10 µg/mL in assay buffer; negative control MAb.
Experiment [17] addresses TSH receptor (TSHR) coated on tubes (human) (UniProt P16473). Kind of experiment: inhibition of 125I-K1-70 IgG binding to TSHR coated tubes; sample 100 µg/mL in HBD serum pool.
For experiment [18] the target is unchanged. In words: inhibition of 125I-K1-70 IgG binding to TSHR coated tubes; sample 1 µg/mL in assay buffer.
The target in experiment [19] is TSH receptor (TSHR), full length human, coated on tubes (human) (UniProt P16473). Kind of experiment: inhibition of 125I-TSH binding to TSHR coated tubes; 100 µg/mL, diluted in HBD serum pool.
Experiment [20] has as its target human thyroid stimulating hormone receptor (TSHR), full length (human) (UniProt P16473). Kind of experiment: 125I-K1-18 Fab competition, TSHR coated tubes; 0.01 µg/mL in assay buffer.
Experiment [21] addresses TSH receptor (TSHR), full length human, coated on tubes (human) (UniProt P16473). In words: inhibition of 125I-K1-18 IgG (competitor) binding to TSHR coated tubes; test sample at 10 µg/mL in assay buffer.
The target in experiment [22] is thyroid stimulating hormone receptor (full length human TSHR) (human) (UniProt P16473). Kind of experiment: ELISA: inhibition of M22 Fab-peroxidase (competitor) binding to TSHR coated wells; 10 µg/mL, diluted in assay buffer.
For experiment [23], the target named is TSH receptor (TSHR), full length human, coated on tubes (human) (UniProt P16473). Kind of experiment: inhibition of 125I-K1-18 IgG (competitor) binding to TSHR coated tubes; test sample at 0.01 µg/mL in assay buffer.
Experiment [24] deals with thyroid stimulating hormone receptor (TSHR), full length, coated on tubes (human) (UniProt P16473). In words: inhibition of 125I-TSH binding, TSHR coated tubes; antibody 1 µg/mL in HBD serum pool.
Experiment [25] concerns the target thyroid stimulating hormone receptor (full length human TSHR) (human) (UniProt P16473). Kind of experiment: ELISA: inhibition of M22 Fab-peroxidase (competitor) binding to TSHR coated wells; 0.1 µg/mL, diluted in assay buffer.

In [1], TSH (ligand) had a Cyclic AMP produced, mutated TSHR, TSH 0.01 ng/mL of 3.15 pmol/mL; a Cyclic AMP produced, mutated TSHR, TSH 0.03 ng/mL of 4.92 pmol/mL; a Cyclic AMP produced, mutated TSHR, TSH 0.1 ng/mL of 8.39 pmol/mL; a Cyclic AMP produced, mutated TSHR, TSH 0.3 ng/mL of 39.2 pmol/mL. Further, in [1], the Cyclic AMP produced, mutated TSHR, TSH 1 ng/mL worked out at 43.8 pmol/mL; the Cyclic AMP produced, mutated TSHR, TSH 3 ng/mL amounted to 55.2 pmol/mL; the Mutated/Wild type (%) of cyclic AMP produced, TSH 0.01 ng/mL came out at 115%; the Mutated/Wild type (%) of cyclic AMP produced, TSH 0.03 ng/mL stood at 116%. In experiment [1], this molecule showed a Mutated/Wild type (%) of cyclic AMP produced, TSH 0.1 ng/mL of 89%; a Mutated/Wild type (%) of cyclic AMP produced, TSH 0.3 ng/mL of 99%; a Mutated/Wild type (%) of cyclic AMP produced, TSH 1 ng/mL of 72%; a Mutated/wild type (%) of cyclic AMP produced; TSH 3 ng/mL of 78%. In [2], this molecule returned a Cyclic AMP produced, wild type TSHR, TSH 0.01 ng/mL of 2.74 pmol/mL; a Cyclic AMP produced, wild type TSHR, TSH 0.03 ng/mL of 4.24 pmol/mL; a Cyclic AMP produced, wild type TSHR, TSH 0.1 ng/mL of 9.39 pmol/mL; a Cyclic AMP produced, wild type TSHR, TSH 0.3 ng/mL of 39.6 pmol/mL. In [2], this molecule registered a Cyclic AMP produced, wild type TSHR, TSH 1 ng/mL of 61.2 pmol/mL and a Cyclic AMP produced, wild type TSHR, TSH 3 ng/mL of 70.6 pmol/mL.

Consider 9D33 IgG (antibody), for which the Inhibition of binding (%) in experiment [3] was 63.2%; in experiment [4] it was 32.2%; in experiment [5] it was 81.8%; in experiment [6], 68.7%; in [7], 9.4%; in [8], 77.3%. Moreover, the Inhibition of binding (%) in experiment [9] was found to be 66.7%.

M22 IgG (antibody): the Inhibition of binding (%) in experiment [10] was 26.4%. Also, the mean units/mg in experiment [11] was found to be 266 units/mg.

In the case of 5B3 IgG (antibody), the % inhibition of TSH-biotin binding in experiment [12] is -4.8%; in experiment [15], 1.1%; in experiment [16], 0.9%. For the same molecule, the results for the Inhibition of binding (%) in [13] and in experiment [14] were -2.7% and 0%, respectively.

B1: 5C9 IgG (antibody, from another filing, V domains shown)
VH: EVQLVESGGGLIQPGGSLRLSCAASGFTVSSNYMSWVRQAPGKGLEWVSVTYSGGSTSYADSVKGRFTISRDNSKNTLYLQMNSLRAEDTAVYYCARGGRYCSSISCYARSGCDYWGQGTLVTVSS
VL: AIQMTQSPSSLSASVGDRVTITCRASQSISNYLNWYQQKPGKAPKLLIYAASSLQSGVPSRFSGSGSGTDFTLTISSLQPEDFATYYCQQSYSSPSTTFGQGTKLEIK
Regarding B1, the Inhibition of binding (%) in experiment [17] was 68.5%; in [18], 56.4%; in experiment [19], 59.2%; in [20], 3%; in experiment [21], 65.9%; in experiment [22], 13.2%. Moreover, the Inhibition of binding (%) in experiment [23] was determined as 11.7%; in experiment [24], 19.7%; in experiment [25], 7.1%.
